For this data set the following is noted: Aspergillus oryzae (strain ATCC 42149 / RIB 40), Thermal, DSC, reversible: yes, whole UniProt chain shown.
Setting [1] is: pH 4.5, Acetic acid-Sodium acetate 0.1 M.

We go through one protein from FireProtDB (doi:10.1002/pro.5560060808).

B1: Guanyl-specific ribonuclease T1 wild type, P00651 (protein)
chain: MMYSKLLTLTTLLLPTALALPSLVERACDYTCGSNCYSSSDVSTAQAAGYQLHEDGETVGSNSYPHKYNNYEGFDFSVSSPYYEWPILSSGDVYSGGSPGADRVVFNENNQLAGVITHTGASGNNFVECT
B1: the melting temperature (Tm) (pH 3, glycine-HCl 0.1 M) came to 52.4 °C; the Tm (pH 3.5, glycine-HCl 0.1 M) turned out to be 54.7 °C; the Tm under setting [1] is 59.2 °C; the midpoint of thermal melting (Tm) (pH 6, MES 0.1 M) stood at 62.4 °C. Moreover, the “heat capacity change of unfolding” value stood at 1.2 kcal/mol/K (pH 3, glycine-HCl 0.1 M); 1.44 kcal/mol/K (pH 3.5, glycine-HCl 0.1 M); 1.17 kcal/mol/K under setting [1]; 1.39 kcal/mol/K (pH 6, MES 0.1 M). Moreover, the “unfolding enthalpy (calorimetric)” value is, setting by setting: (pH 3, glycine-HCl 0.1 M) 99.3 kcal/mol; (pH 3.5, glycine-HCl 0.1 M) 103 kcal/mol; under setting [1], 109 kcal/mol; (pH 6, MES 0.1 M) 112 kcal/mol.

What is called Tm is the temperature at the midpoint of the melting transition.
